Results taken from publication PMC9452514, “Coiled-coil structure of meiosis protein TEX12 and conformational regulation by its C-terminal tip” (Communications Biology, 2022).

Key:
[1] = target: the molecule itself; assay: SEC-MALS; Superdex 200 Increase 10/300 GL, 20 mM Tris pH 8.0, 150 mM KCl, 2 mM DTT; wild-type and FFV at >10 mg/ml and at 1 mg/ml; species stable across 1-10 mg/ml
[2] = target: the molecule itself; assay: crystal structure; TEX12 FFV at 43 mg/ml, sitting drops, 200 mM calcium acetate, 40% MPD, 20 °C; C222_(1), 1.45 Å, two chains per asymmetric unit
[3] = target: the molecule itself; assay: SEC-SAXS; Superdex 200 Increase 10/300 GL, 20 mM Tris pH 8.0, 150 mM KCl; samples at >5 mg/ml; beamline B21, Diamond Light Source
[4] = target: the molecule itself; assay: SEC-SAXS; Superdex 200 Increase 10/300 GL, 20 mM Tris pH 8.0, 150 mM KCl; ΔCtip and LFIL analysed at ~30 mg/ml to minimise dissociation
[5] = target: the molecule itself; assay: SEC-MALS; Superdex 200 Increase 10/300 GL, 20 mM Tris pH 8.0, 150 mM KCl, 2 mM DTT; ΔCtip and LFIL loaded at 1 mg/ml after stepwise dilution

Protein | stoichiometry N [1] | stoichiometry N [2] | stoichiometry N [3] | stoichiometry N [4] | stoichiometry N [5]
TEX12 core (amino-acids 49–123) wild-type (domain or fragment, human, UniProt Q9BXU0 49-123, looked up, TEX12, human, structural core, amino-acids 49-123; expressed from pMAT11 as a TEV-cleavable His-MBP fusion; also called TEX12 wild-type; WT; source: E. coli BL21 (DE3), purified (Ni-NTA, amylose, HiTrap Q HP, TEV cleavage, SEC); not shown: His, N-terminal, cleaved; MBP, N-terminal, cleaved) KDEALEKDLNDVSKEINLMLSTYAKLLSERAAVDASYIDEIDELFKEANAIENFLIQKREFLRQRFTVIANTLHR | 2 |  |  |  | 
TEX12 core (amino-acids 49–123) F102A F109E V116A (FFV) (domain or fragment, human, UniProt Q9BXU0 49-123, looked up, TEX12, human, structural core, amino-acids 49-123, with mutations of solvent-exposed residues; both crystal forms (6HK9, 6R2F) show dimers; The introduction gives the FFV of the earlier work as F102A F109A V116A; also called TEX12 FFV; TEX12 (49–123) FFV; source: E. coli BL21 (DE3), purified (Ni-NTA, amylose, HiTrap Q HP, TEV cleavage, SEC); not shown: His, N-terminal, cleaved; MBP, N-terminal, …) KDEALEKDLNDVSKEINLMLSTYAKLLSERAAVDASYIDEIDELFKEANAIENALIQKREELRQRFTAIANTLHR |  | 2 | 4 |  | 
TEX12 core (amino-acids 49–123) L110E F114E I117E L121E (LFIL) (domain or fragment, human, UniProt Q9BXU0 49-123, looked up, TEX12, human, structural core, amino-acids 49-123, with glutamate mutations of the Ctip heptad amino-acids; In solution tetramers in concentration-dependent equilibrium with dimers; also called TEX12 LFIL; source: E. coli BL21 (DE3), purified (Ni-NTA, amylose, HiTrap Q HP, TEV cleavage, SEC); not shown: His, N-terminal, cleaved; MBP, N-terminal, cleaved) KDEALEKDLNDVSKEINLMLSTYAKLLSERAAVDASYIDEIDELFKEANAIENFLIQKREFERQRETVEANTEHR |  |  |  | 4 | 2
TEX12 ΔCtip (amino-acids 49–113) (domain or fragment, human, UniProt Q9BXU0 49-113, looked up, TEX12, human, core without the C-terminal tip (deletion of amino-acids 114-123), amino-acids 49-113; Tetramer in the crystal (6HK8); in solution tetramers in concentration-dependent equilibrium with dimers; also called TEX12 ΔCtip (49–113); source: E. coli BL21 (DE3), purified (Ni-NTA, amylose, HiTrap Q HP, TEV cleavage, SEC); not shown: His, N-terminal, cleaved; MBP, N-terminal, cleaved) KDEALEKDLNDVSKEINLMLSTYAKLLSERAAVDASYIDEIDELFKEANAIENFLIQKREFLRQR |  |  |  | 4 | 2
